Reference: paper PMC3168947 (Molecular cell, 2011)

Key:
^ΔLClpA6 = test: Binding of ClpS*^F to ^ΔLClpA6, with or without peptide; set-up: species or system E. coli; settings: 20 μM LLYVQRDSKEC; Fig. 3E; in words
ClpA6 = ClpA6 (Escherichia coli, UniProt P0A8Q6+P0ABH9, C101S/C73V/E96C); type: binding, E. coli
crystal structure = target: the molecule itself; test: crystal structure
ClpAP [1] = settings: H66A mutation; in words; ref Wang et al., 2008a; cited from earlier work
ClpAP [2] = settings: ref Dougan et al., 2002; cited from earlier work
ClpAP [3] = test: ClpAPS degradation of YLFVQELA-GFP; type: biochemical, E. coli; settings: YLFVQELA-GFP degradation; Vmax = Etotal•kdeg/(1+K2); KM = K1•K2/(1+K2); Fig. 4B
ClpA = test: FeBABE cleavage of ClpA by FeBABE-modified ^Q12CClpS; set-up: species or system E. coli; settings: SDS-PAGE; in words

Chain of ClpA6 (P0ABH9 whole entry): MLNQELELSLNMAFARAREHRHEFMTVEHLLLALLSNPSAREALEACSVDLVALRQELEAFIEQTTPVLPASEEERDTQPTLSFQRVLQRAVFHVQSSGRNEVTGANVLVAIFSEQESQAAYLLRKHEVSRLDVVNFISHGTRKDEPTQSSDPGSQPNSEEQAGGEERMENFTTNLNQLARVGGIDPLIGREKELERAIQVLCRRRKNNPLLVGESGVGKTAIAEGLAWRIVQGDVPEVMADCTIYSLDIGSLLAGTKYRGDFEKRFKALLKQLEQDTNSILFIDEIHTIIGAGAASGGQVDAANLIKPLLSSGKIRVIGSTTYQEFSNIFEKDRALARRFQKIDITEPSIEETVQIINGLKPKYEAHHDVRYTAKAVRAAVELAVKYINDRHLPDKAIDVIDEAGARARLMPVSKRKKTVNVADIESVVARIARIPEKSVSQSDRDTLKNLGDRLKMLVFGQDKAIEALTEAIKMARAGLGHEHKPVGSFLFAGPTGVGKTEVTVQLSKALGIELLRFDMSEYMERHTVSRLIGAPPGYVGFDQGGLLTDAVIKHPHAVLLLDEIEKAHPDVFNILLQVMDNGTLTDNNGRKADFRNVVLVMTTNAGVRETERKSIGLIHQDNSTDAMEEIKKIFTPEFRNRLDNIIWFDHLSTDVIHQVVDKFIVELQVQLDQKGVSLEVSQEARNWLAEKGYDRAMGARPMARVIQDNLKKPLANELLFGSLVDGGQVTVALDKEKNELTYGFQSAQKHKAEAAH
Chain of ClpA6 (P0A8Q6 whole entry C73V/E96C/C101S): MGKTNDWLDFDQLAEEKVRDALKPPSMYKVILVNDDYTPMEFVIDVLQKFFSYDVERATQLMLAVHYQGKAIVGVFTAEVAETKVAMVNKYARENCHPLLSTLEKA

LLYVQRDSKEC
enhancement of ClpS*^F binding to ^ΔLClpA6 by N-end-rule peptide (^ΔLClpA6): enhanced binding of ClpS*^F to ClpA6 but not to ^ΔLClpA6 | ClpA6 bound ClpS*^F more tightly, fold (ClpA6; excess peptide, compared with MLYVQRDSKEC peptide or absence of ligand): at least 9 fold | Kapp of ClpA6 for ClpS*^F in presence of peptide (ClpA6; fluorescence anisotropy, 200 nM ClpS*^F, 20 μM peptide, ATPγS, Fig. 3A): < 20 nM

B1: E. coli ClpS residues 2-106 (crystals of Schuenemann et al., 2009, re-refined here) (natural protein, UniProt P0A8Q6 2-106, looked up)
chain: GKTNDWLDFDQLAEEKVRDALKPPSMYKVILVNDDYTPMEFVIDVLQKFFSYDVERATQLMLAVHYQGKAICGVFTAEVAETKVAMVNKYARENEHPLLCTLEKA
binding result (crystal structure): binds

B2: H66A: H66A mutation of ClpS (protein, UniProt P0A8Q6 1-106, looked up, variant H66A)
ATP-dependent Clp protease …: MGKTNDWLDFDQLAEEKVRDALKPPSMYKVILVNDDYTPMEFVIDVLQKFFSYDVERATQLMLAVAYQGKAICGVFTAEVAETKVAMVNKYARENEHPLLCTLEKA
KM and Vmax for ClpAP degradation of N-end-rule substrates (ClpAP [1]): increased KM and reduced Vmax

B3: ClpS: E. coli ClpS adaptor; folded core (residues 26-106) and N-terminal extension (residues 1-25) (protein, UniProt P0A8Q6 1-106, looked up)
ATP-dependent Clp protease …: MGKTNDWLDFDQLAEEKVRDALKPPSMYKVILVNDDYTPMEFVIDVLQKFFSYDVERATQLMLAVHYQGKAICGVFTAEVAETKVAMVNKYARENEHPLLCTLEKA
degradation by ClpAP (ClpAP [2]): does not degrade | K2 (unimolecular engagement step, global fit) (ClpAP [3]): 0.37

B4: ^Q12CClpS: Q12C ClpS variant, FeBABE attached to residue 12 (protein, UniProt P0A8Q6 1-106, looked up, variant Q12C)
ATP-dependent Clp protease …: MGKTNDWLDFDCLAEEKVRDALKPPSMYKVILVNDDYTPMEFVIDVLQKFFSYDVERATQLMLAVHYQGKAICGVFTAEVAETKVAMVNKYARENEHPLLCTLEKA
modifications: FeBABE attached at Cys12
FeBABE cleavage requirement (ClpA): cleavage of ClpA required FeBABE-modified ^Q12CClpS and ATPγS
